In test [1] the target is mouse TEAD4(210–427), as purified (SPR) (mouse) (UniProt Q62296). The test is described as follows: not stated; values of Supplementary Table 1; the method is not given.
Test [2] deals with GST-hTEAD1(209–426) (human) (UniProt P28347). The test is described as above.

pKd: −log10 of the molar value.

The source of these data is publication PMC7591920, “A protein tertiary structure mimetic modulator of the Hippo signalling pathway” (Nature Communications, 2020).

Chain of mouse TEAD4(210–427), as purified (SPR) (mouse) (Q62296 210-427): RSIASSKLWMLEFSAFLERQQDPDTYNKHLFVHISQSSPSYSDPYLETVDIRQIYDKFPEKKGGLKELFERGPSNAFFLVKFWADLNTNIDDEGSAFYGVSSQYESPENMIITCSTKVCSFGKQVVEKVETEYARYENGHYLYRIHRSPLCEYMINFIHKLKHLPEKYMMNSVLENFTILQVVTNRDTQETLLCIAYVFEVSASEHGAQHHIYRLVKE

Take “VGL4 two-helix motif peptide with K250 varied to alanine (from UniProt Q80V24 203-256)”: the negative-log Kd (pKd) in test [1] is 4.92; in test [2], 4.77.

By pKd is commonly meant −log10 of the Kd, conventionally taken in molar units.
